In US20060172377:

Key:
[1] = system: T1, SF370.1 recombinase (Streptococcus pyogenes phage SF370.1); experiment: cell_activity; details: integration of attP (N3) plasmid at pseudo attB; 9 clones without recombinase; 35 of 100 rescued at this site
T1 sequence: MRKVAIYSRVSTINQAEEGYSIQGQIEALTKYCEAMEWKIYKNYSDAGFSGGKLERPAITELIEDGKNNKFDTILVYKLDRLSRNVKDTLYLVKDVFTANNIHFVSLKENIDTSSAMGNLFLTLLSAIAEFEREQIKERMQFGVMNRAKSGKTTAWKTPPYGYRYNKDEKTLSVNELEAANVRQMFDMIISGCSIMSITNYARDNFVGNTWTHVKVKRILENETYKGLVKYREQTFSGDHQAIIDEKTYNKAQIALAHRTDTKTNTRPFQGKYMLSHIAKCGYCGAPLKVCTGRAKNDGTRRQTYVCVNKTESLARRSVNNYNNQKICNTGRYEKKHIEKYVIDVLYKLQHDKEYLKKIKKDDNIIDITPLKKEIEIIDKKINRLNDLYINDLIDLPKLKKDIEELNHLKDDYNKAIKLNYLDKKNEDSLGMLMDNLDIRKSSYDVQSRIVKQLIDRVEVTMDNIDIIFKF

[2] = biological target: T2, SPβc2 recombinase (yokA) (Bacillus subtilis phage SPβc2) (UniProt O32006); experiment: cell_activity; details: integration of attP (N1) plasmid at pseudo attB; 0 clones without recombinase; 15 integrations at this site
T2 sequence: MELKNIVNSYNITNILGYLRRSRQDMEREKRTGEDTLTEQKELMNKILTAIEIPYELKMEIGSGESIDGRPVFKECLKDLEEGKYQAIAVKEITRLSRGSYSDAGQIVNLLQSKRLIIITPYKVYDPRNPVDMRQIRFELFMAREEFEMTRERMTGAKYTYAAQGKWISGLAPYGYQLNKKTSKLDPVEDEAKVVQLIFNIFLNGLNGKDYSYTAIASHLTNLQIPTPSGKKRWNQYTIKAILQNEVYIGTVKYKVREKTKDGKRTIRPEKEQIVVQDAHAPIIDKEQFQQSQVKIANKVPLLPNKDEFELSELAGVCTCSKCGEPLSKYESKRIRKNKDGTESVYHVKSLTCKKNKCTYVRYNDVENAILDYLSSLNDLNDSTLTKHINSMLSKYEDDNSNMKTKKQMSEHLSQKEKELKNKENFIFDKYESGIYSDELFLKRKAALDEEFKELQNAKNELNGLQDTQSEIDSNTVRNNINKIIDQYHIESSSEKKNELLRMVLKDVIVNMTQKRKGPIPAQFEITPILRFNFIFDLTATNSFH

| Substance | activity (hygromycinR clones) [1] | activity (hygromycinR clones) [2] |
| --- | --- | --- |
| SF370.1 human pseudo attB | > 100 | – |
| SPβc2 human pseudo attB | – | > 100 |
